Assay: yeast display, Sf9 membrane polyspecificity reagent, FACS + sequencing; frameworks hold sequencing errors
In short: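 Genes from sorted yeast were amplified by colony PCR, read by MiSeq 2 × 250 sequencing and filtered on CDR length. These cells carried a synthetic nanobody library in Saccharomyces cerevisiae BJ5465 and were sorted by FACS into low and high (top ~1%) gates on anti-HA and streptavidin fluorescence. Polyreactivity is labelled according to the gate of origin.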

Sequence | polyreactivity (PSR sort gate)
QVQLVESGGGLVQAGGSLRLSCAASGFTFVRYVMGWYRQAPGKERELVAAISRSGGSTHYADSVKGRFTISRDNAKNTVYLQMNSLKPEDTAVYYCADASPRWPGQGDYWGQGTQVTVSS | high polyreactivity
QVQLVESGGGLVQAGGSLRLSCAASGLTFLWYAMGWYRQAPGKERELVAAITSGGRTKYADSVKGRFTISRDNAKNTVYLQMNSLKPEDTAVYYCAAYTQWWGYDYWGQGTLVTVSS | high polyreactivity
QVQIVESGGGLVQAGGSLRLSCASSGRIFHRYAMGWYRQAPGKERELVAAISYSTARTYYADSVKGRFTISRDNAKNTVYLQMNSLKPEDTAVYYCAAKDERRSFGMGYWGQGTQVTVSS | high polyreactivity
QVQLVESGGGLVQAGGSLRLSCAASGRTFGTNAMGWYRQAPGKERELVASIDLSADSTYYADSVKGRFTISRDNAKNTVYLQMNSLKPEDTAVYYCNKDGYPWPPNLDYWGQGTQVTVSS | low polyreactivity
QVQLVESGGGLFQAGGSLRLTCAASGFTFSYNAMGWYRQAPGKERELVAAISSSGGSTYYADSVKVRFTISRENAKNTVYLPMNSLKPVDTAVYYCAVPYLTLYGRTYDYWGQGTLVTVSS | high polyreactivity
QVQLVESGGGLVQAGGSLRLSCAASGRTFDRNAMGWYRQAPGKERELVAAISRGGTTYYADSVKGRFTISRDNAKNTVYLQMNSLKPEDTAVYYCARVGRYRYEWGQGTQVTVSS | high polyreactivity
QVQLVESGGGLVQAGGSLRLSCAASGSTFLLYAMGWYRPAPGKERELVATISWGGDGTYYADSVKGRFTISRDNAKNTVYLQMNSLKPEDTAVYYCAAESYLVQFYFLYYYWGQGTQVTVSS | low polyreactivity
QVQLVETGGGLVQAGGSLRLSCAASVRTFHGYAMGWYRQAPGKERELVAAITCTGGRTYYADSVKGRFTISRDNAKNTVYLQMNSLKPEDTAVYYCGARPWIKSGYCGQGTQVTVSS | high polyreactivity
QFQLVESGGGLVQAGGSLRLSCAASGSIFYTYTMGWYRQAPGKDRVLVAAISFSDGDTYYADSVKGRFTISRDNAKNTVYLQMNSLKPEDTAVYYSNAYVYLPNYPYDYWGQGTQVTVSS | low polyreactivity
QVQLVESGGGLVQAGGSLRLSCAASGIIFKYYSKGWYRQAPGKERELVAAITSGGSTNYADSVKGRFTISRDNAKNTVYLQMNSLKPEDTAVYYCAKRFYYRNRFDYWGQGTQETVSS | low polyreactivity
QVQLVESGGVLVQAGGSLRLSCAASGSIFDHYAMGWYRQAPGKERELVAAITYSDGSTYYADSVKGRFTISRDNAKNTVFLQMNSLKPEDTAVFYCAAYPRGSQRYNYWGQGTHVTVSS | high polyreactivity
QVQLVESGGGLVQAGGSLRLSCAASGFTFRRYTMGWYRQAPGKERELVARISSRGGRTFYADSVKGRFTISRDNAKNTVYLQMNSLKPEDTAVYYCAKRAPYGTTSPGGDYWGQGTQVTVSS | high polyreactivity
QVQLVESGGGLVQAGGSLRLSCAASGSIFNGYAMGWYRQAPGKERELVAAISWSGVGTYYADSVKGRFTISRDNAKNTVYLQMNSLKPEDTAVYYCAAALPLVDFYDYWGQGTQVTVSS | low polyreactivity
QVQLVESGGGLVQGGGSLRLSCAASGIIFFNNVMGWYRLAPGKERELVAAITFSGSSTYYADSVKGRFTISRDNAKNTVYLQMNSLKTEDTAVYYCAAYRSGHGIIDYDSWGQGTQVTVSS | low polyreactivity
QVQLVESGGGLVQAGGSLRLSCAASGRTFSRYAMGWYRQSPGKERELVAAITSGGGSTYYADSVKGRFTISRDNAKNTVYLQMNSLKPEDTAVYYCAVRSAPIVYVYVASWWSLYDYWGQGTQVTVSS | low polyreactivity
QVQLVESGGGIVQAGGSLRLICAASGSNFNRYAMGWYRQAPGKERQLVARITNRSGNTYYADSVKGRFTISRDIAKNTVYLQMTSLKPEDTAVYYCAATKSLGRYIMEYWGLGTQVTVSS | low polyreactivity
QVQLVESGGGLVQAGGSLRLSCAASGSIFYLYTMGWYRQAPWKERELVAGISNGDRTYYADSVKGRFTISRDNAKNTVYLQMNSLKPEDTAVYYCAVTVYWYSRAAEYDYWGQGTQVTVSS | low polyreactivity
QVQLVESGGGLVQAGGSLRLSCAASGSIFNGYVMGWYRQAPGKERELVAAISSGGRTYYADSVKGRFTISRDNAKNTVYLQMNSLKPEDTAVYYCNAYWLHYPSRVRKITAYDYWGQGTQVTVSS | low polyreactivity
QVQLQESGGVQAGGSLRLSSAATGYIARSDDMGWYRQAPGKERELVATINNGTITYYADSVKGRFTISRDNAKNTVYLQMNSLKPEDTAVHYCAVVQSDTDSLYYWGQGTQVSVSS | low polyreactivity
QVQLVESGGGLVQAGGSLRLTCAASGRPFGKNGMGWYRQAPGKEREWVAAISLSGGSTYYADSVKGRFTISRDYAKNTVYLQMNSLKPEDTAVYYCAAYGIRGPVYQYYFWGQGTQVTVSS | low polyreactivity
QVQLVESGGGLVQAGGSLRLSCAASGSIFRTNAMGWYRPAPGKERELVAAITGSGGSTYYADSVKGRFTISRDNAKNTVYLQMNSLKPEDTAVYYCATPVNRERHAEDYWGQGTQVTVSS | low polyreactivity
QFQLVESGGGLVQAGGSLRLSCAASGSIFDSYYMGWYRQAPGKEREMVAAITSGGSTNYADSVKGRFTISRDNAKNTVYLQMNSLKPEDTAVYYCAAYYWYPVYYGYEYWGQGTQVTVSS | low polyreactivity

Sequence | polyreactivity (PSR sort gate)
QVQLVESGGGLVQAGGSLRLSCAASGSTFYIYAMGWYRQAPGKERELVAAITSGGNTYYADSVKGRFTISRDNAKNTVYLQMNSLKPEDTAVYYCAAELYDRWSRMDYWGQGTQVTVSS | low polyreactivity
QVQLVESGGGLVQAGGSLRLSCAASGRIFVRNAMGWYRQAPGKEMEFVAAISRSGGSTYYADSVKGRFTISRDNAKNTVYLQMNSLKPEDTAVYYCAADYPKTYTSKFNYWGQGTQVTVSS | high polyreactivity
QVQLVESGGGLVQAGGSLRLSCAASGSIFPRNVMGWYRQEPGKERQLVAVITARGGSTYYADSVKGRFTISRDNAKNTVYLQMNSLKPEDTAVYYCATPYSRRKIPPNYDYWGLGTQVTVSS | high polyreactivity
QVQLVESGGGLVHAGGSLRLSCAASGRTFWSYAMGWYRQAPGKERELVAAIRTSDGITYYADSVKGRFTISRDNAKNTVYLQMNSLKPEDTAVYYCAAENWYKYDYWGQGTQVTVSS | low polyreactivity
QVQLVESGGGLVQAGGSLRLSCAASGSILTAYAMGWYRQAPGKERELVAAISRGDITKYADSVKGRFTISRDNAKNTVYLQMNRLKPEDTAVYYCAARVPRYSDSTRGRADYYWGQGTQVTVSS | high polyreactivity
QVQLVESGGGLVQAGGSLRLSCAASGFIFVENAMGWYIQAPGKERELVASISRRGGSTYYADSVKGRFTISRDNAKNTVYLQMNSLKPEDTAVYYCAATLGRTRYNYWGQGTQVTVSS | high polyreactivity
QVQLVESGGGLVQAGGSLRLSCAASGSTFGDYAMGWYRQAPGKERELVAAITIGGITTYADSVKGRFTISRDNAKNTVYLQMNSLKPEDTAVYYCNADDYQYKTWYHLDYWGQGTQVTVSS | low polyreactivity
QVQLVESGGGLVQAGGSLRLSCAASGRIFYVNAMGWYRQAPGKERELVAGIDDGVTTYYAVSVKGRFTSSRDNAKNTVYLQMNSLKPEDTAVYYCAKETLVILIYDYWGQGTQVTVSS | low polyreactivity
QVQLVESGVGLVQAGGSLRLSCAASGNTISYNAMGWSRQAPGKERELVAAIRWSGGSTNYADSVKGRFTISRDNAKNTVYLQMNSLKPEDTAVYYCNARYASTNYGWISYYWGQGNQVTVSS | high polyreactivity
QVQLVESGGGLVQAGGSLRFSCAASGDTFTSYAMGWYRQAPGKERELVAAISRRGGSTYYADSVKGRFTISRDNAKNTVYLQMNSLKPEDTAVYYCAAKSYSYTEFDYWGQGTQVTVSS | high polyreactivity
QVQLVESGGGLVQAGGSLRLSCAASGSIFAFNGMGGYRPAPGKERELVAGITISDSTNYADSVKGRFTISRDNAKNTVSLQMNSLKPEVTAVYYCNADYEQYVYWYWFIKYDYWGQVTQVTVSS | low polyreactivity
QVQLVESGGGLVQAGGSLRLSCAASGSIFGLYAMGWYIQAPGKERELVATISKSGVSTYYADSVKGRFTISRDNEKNTVYLQMKSLKPEVTAVYYCNADISRDNDFDYWGQGTQVTVSA | low polyreactivity
QVQHVESGGGLVQAGGSLRLSCAASGFTFWYYAMGWYRRATGKERELIASISSIGGSTYYADSVKGRYTISRDNAKNTVYLQMNSLKAEDTAVYYCAARYKFLRGGVRRDYWGQGTQVTVSS | high polyreactivity
QVQLVESGGGLVQAGGSLRLSCAASGRIFRYNAMGWYRQAPGKERELVADISKRGGSTYYADSVKGRFTISRDNAKNTVYLQMNSLKPEDTAVYYCNARNTYYVVANDYWGQGTQVTVSS | high polyreactivity
QDQLVESGGGLVQAGGSLRLSCAASGNIFDYYAMGWYRQAPGKERELVATITWSSGRTYYADSVKGRFTISRDNAKNTVYLQMNSLKTEDTAVYYCNTRSYTRYDYWGQGTQVTVSS | low polyreactivity
QVQLVESGGGLVQAGGSLRLSCASSGRTFRSYAMGWYRQAPGKERELVAAITYSGGNTYYADSVKGRFTISRDNAKNTVYLQMNSLKPEDTAVYYCAYLKTPRGYDYWGQGTQVTVSS | high polyreactivity
QVQLVESGGGLVQAGGSLRLSCSASGFIYPNNAMGWYRQAPGKERELVARISYGGGDTHYADSVKGRFTISRDNAKNTVYLQMNSLKPEDTAVYYCAVKDGQDDYWGQGTQVTVSS | low polyreactivity
QVQLVESGGGLVQAGGSLRLSCAASGSTFWPNAMGWYRQAPGKERELVAGITTSSGSTFYADSVKGRFTISRDNAKNTVYLQMNSLKPADTAVYYCNARVRRRRYKYDYWGQGTQVTVSS | high polyreactivity
QVQLVESGGVLVQAGGSLRLSCAASGRIFSSNAMGWYRHAPGKESEFVADISWRTGSTYYADSVKGRFTISRDNAKNTVYLQMNSLKPEDTAVYYCKKRTGSYGYPYYYWGQGTQVTVSS | high polyreactivity
QVQLVESGGGLVQAGGSLSLSCAASGITFDYYAMGWYRQAPGKERELVAAISGRGTSTYYADSVKGRFTLSRDNAKNTVYLQLNSLKPEDTAVYYCAADPAAQREQSFLCRRGPGYDYWGQGTQVTVSS | low polyreactivity
QVQLVESGGGLVQAGGSLRLSCAASGSTFVYNVMGWYRQAPGKERELVAAITSGVRTYYADSVKGRFTISRDNAMNTVYLQMNSLKPEDTAVYYCATGLRYAKYYYWGQGTQVTVSS | high polyreactivity

From the nanobody polyreactivity screen of Harvey et al. (2022)
